Earlier results as cited in article PMC4019842.

Target: holo-transferrin (Homo sapiens) (UniProt P02787)
UniProt P02787, sequence (P02787 20-698): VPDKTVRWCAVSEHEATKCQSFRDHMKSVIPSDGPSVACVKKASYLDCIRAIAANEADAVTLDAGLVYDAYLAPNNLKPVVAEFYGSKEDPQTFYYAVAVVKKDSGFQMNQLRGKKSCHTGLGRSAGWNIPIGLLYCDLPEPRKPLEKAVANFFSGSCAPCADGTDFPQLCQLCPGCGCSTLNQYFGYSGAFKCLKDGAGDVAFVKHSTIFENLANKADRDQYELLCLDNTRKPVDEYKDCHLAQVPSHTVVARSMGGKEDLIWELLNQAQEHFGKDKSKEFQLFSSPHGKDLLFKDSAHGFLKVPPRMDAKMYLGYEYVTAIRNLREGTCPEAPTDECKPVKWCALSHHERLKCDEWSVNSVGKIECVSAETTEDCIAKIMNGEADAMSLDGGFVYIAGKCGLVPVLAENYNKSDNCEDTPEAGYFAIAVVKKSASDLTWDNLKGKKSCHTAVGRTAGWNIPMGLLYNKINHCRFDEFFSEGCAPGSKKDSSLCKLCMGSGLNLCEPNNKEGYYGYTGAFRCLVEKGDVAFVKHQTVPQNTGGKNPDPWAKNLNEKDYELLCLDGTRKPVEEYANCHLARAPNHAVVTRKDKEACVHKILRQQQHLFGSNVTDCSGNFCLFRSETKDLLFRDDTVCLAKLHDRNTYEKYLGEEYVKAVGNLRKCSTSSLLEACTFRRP

- Kd: 30 nM
Substance: TFR2 (from UniProt Q9UP52)
